Experimental data as given in patent US20220363770A1 (Amgen, published 2022).
Numbering of substitutions follows the chain as printed. In names and notes the source's numbering stands.

T1: human PAC1 receptor on SH-SY5Y (CRL-2266) cells (human, UniProt P41586 24-468)
T1 sequence: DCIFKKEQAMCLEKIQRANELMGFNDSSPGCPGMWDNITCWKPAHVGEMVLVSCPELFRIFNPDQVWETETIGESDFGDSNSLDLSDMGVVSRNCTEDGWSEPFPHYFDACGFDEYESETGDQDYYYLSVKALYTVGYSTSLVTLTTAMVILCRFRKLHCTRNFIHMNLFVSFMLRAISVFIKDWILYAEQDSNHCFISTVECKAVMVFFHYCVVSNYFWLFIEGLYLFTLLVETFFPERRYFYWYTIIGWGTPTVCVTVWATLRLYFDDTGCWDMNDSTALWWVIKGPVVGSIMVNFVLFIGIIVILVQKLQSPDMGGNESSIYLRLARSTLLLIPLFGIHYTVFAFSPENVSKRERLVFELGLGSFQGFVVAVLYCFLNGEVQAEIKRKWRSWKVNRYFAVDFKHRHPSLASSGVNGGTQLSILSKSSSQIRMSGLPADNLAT

B1: iPS:571017 (5604) anti-CGRP receptor/anti-PAC1 receptor bispecific hetero-immunoglobulin (bispecific antibody, human IgG1, kappa, lambda, N297G)
light 1: QSVLTQPPSVSAAPGQKVTISCSGSYSNIGRYSVSWYQQLPGTAPKLLIYDNNKRPSGIPDRFSGSKSGTSATLGITGLQTGDEADYYCGTWDSRLSAVVFGGGTKLTVLGQPKAAPSVTLFPPSSEELQANKATLVCLISDFYPGAVTVAWKADSSPVKAGVETTTPSKQSNNKYAAKSYLSLTPEQWKSHRSYSCQVTHEGSTVEKTVAPTECS
heavy 1: QVQLVESGGGVVQPGRSLRLSCAASGFTFSSFGMHWVRQAPGKGLEWVAVISFDGSIKYSVDSVKGRFTISRDNSKNTLFLQMNSLRAEDTAVYYCARDRLNYYESSGYYHYKYYGMAVWGQGTTVTVSSASTKGPSVFPLAPSSKSTSGGTAALGCLVKDYFPEPVTVSWNSGALTSGVHTFPAVLQSSGLYSLESVVTVPSSSLGTQTYICNVNHKPSNTKVDKKVEPKSCDKTHTCPPCPAPELLGGPSVFLFPPKPKDTLYITREPEVTCVVVDVSHEDPEVKFNWYVDGVEVHNAKTKPCEEQYGSTYRCVSVLTVLHQDWLNGKEYKCKVSNKALPAPIEKTISKAKGQPREPQVYTLPPSRKEMTKNQVSLTCLVKGFYPSDIAVEWESNGQPENNYKTTPPVLKSDGSFFLYSKLTVDKSRWQQGNVFSCSVMHEALHNHYTQKSLSLSPGK
light 2: EIVLTQSPATLSLSPGERATLSCRASKSVGRSLHWYQQKPGQAPRLLIKYASQSLSGIPARFSGSGSGTDFTLTISSLEPEDFAVYYCHQSSRLPFTFGPGTKVDIKRTVAAPSVFIFPPSDEQLKSGTASVVCLLNNFYPREAKVQWKVDNALQSGNSQESVTEQDSKDSTYSLESTLTLSKADYEKHKVYACEVTHQGLSSPVTKSFNRGEC
heavy 2: not shown
B2: iPS:571023 (5607) anti-CGRP receptor/anti-PAC1 receptor bispecific hetero-immunoglobulin (bispecific antibody, human IgG1, kappa, lambda, N297G)
light 1: B1 light 1
heavy 1: B1 heavy 1 with Y265M, T267S, E269T
light 2: B1 light 2
heavy 2: not shown
B3: iPS:571824 (5609) anti-CGRP receptor/anti-PAC1 receptor bispecific hetero-immunoglobulin (bispecific antibody, human IgG1, kappa, lambda, N297G)
light 1: B1 light 1
heavy 1: B1 heavy 1 with K369E, E370K
light 2: B1 light 2
heavy 2: not shown
B4: iPS:571025 (5605) anti-CGRP receptor/anti-PAC1 receptor bispecific hetero-immunoglobulin (bispecific antibody, human IgG1, kappa, lambda, N297G)
light 1: B1 light 1
heavy 1: B1 heavy 1
light 2: B1 light 2
heavy 2: not shown
B5: iPS:571033 (5608) anti-CGRP receptor/anti-PAC1 receptor bispecific hetero-immunoglobulin (bispecific antibody, human IgG1, kappa, lambda, N297G)
light 1: B1 light 1
heavy 1: B1 heavy 1 with Y265M, T267S, E269T, K369E, E370K
light 2: B1 light 2
heavy 2: not shown
B6: 4E4 single-point alanine variant antibody H_D54A (antibody, V domains shown)
VH: QVQLVESGGGVVQPGRSLRLSCAASGFTFSSFGMHWVRQAPGKGLEWVAVISFAGSIKYSVDSVKGRFTISRDNSKNTLFLQMNSLRAEDTAVYYCARDRLNYYDSSGYYHYKYYGMAVWGQGTTVTVSS
VL: QSVLTQPPSVSAAPGQKVTISCSGSSSNIGNNYVSWYQQLPGTAPKLLIYDNNKRPSGIPDRFSGSKSGTSTTLGITGLQTGDEADYYCGTWDSRLSAVVFGGGTKLTVLG
notes: Recombinantly expressed as monoclonal antibody; also called CDRH2 D54A antibody variant
B7: 4E4 single-point alanine variant antibody H_Y103A (antibody, V domains shown)
VH: B6 VH with A54D, Y103A
VL: B6 VL
notes: Recombinantly expressed as monoclonal antibody
B8: 4E4 single-point alanine variant antibody H_Y110A (antibody, V domains shown)
VH: B6 VH with A54D, Y110A
VL: B6 VL
notes: as for B7
B9: 4E4 single-point alanine variant antibody H_Y109A (antibody, V domains shown)
VH: B6 VH with A54D, Y109A
VL: B6 VL
notes: as for B7
B10: 4E4 single-point alanine variant antibody H_Y104A (antibody, V domains shown)
VH: B6 VH with A54D, Y104A
VL: B6 VL
notes: as for B7
B11: 4E4 heavy chain Y109A single-point alanine variant antibody (antibody, V domains shown)
VH: B6 VH with A54D, Y109A
VL: B6 VL
notes: Recombinantly expressed as a monoclonal antibody
B12: 4E4 heavy chain Y104A single-point alanine variant antibody (antibody, V domains shown)
VH: B6 VH with A54D, Y104A
VL: B6 VL
notes: as for B11
B13: 4E4 heavy chain Y110A single-point alanine variant antibody (antibody, V domains shown)
VH: B6 VH with A54D, Y110A
VL: B6 VL
notes: as for B11
B14: 4E4 heavy chain Y103A single-point alanine variant antibody (antibody, V domains shown)
VH: B6 VH with A54D, Y103A
VL: B6 VL
notes: as for B11
B15: 4E4 heavy chain D54A single-point alanine variant antibody (antibody, V domains shown)
VH: B6 VH
VL: B6 VL
notes: as for B11
B16: wild-type 4E4 anti-CGRP receptor monoclonal antibody (antibody, human IgG2, lambda, V domains shown)
VH: B6 VH with A54D
VL: B6 VL
notes: also called WT; 4E4 Ab
B17: 4E4 heavy chain K113A single-point alanine variant antibody (antibody, V domains shown)
VH: B6 VH with A54D, K113A
VL: B6 VL
notes: as for B11
B18: 4E4 light chain K67A single-point alanine variant antibody (antibody, V domains shown)
VH: B6 VH with A54D
VL: B6 VL with K67A
notes: as for B11
B19: 4E4 light chain R95A single-point alanine variant antibody (antibody, V domains shown)
VH: B6 VH with A54D
VL: B6 VL with R95A
notes: as for B11
B20: 4E4 light chain Y33A single-point alanine variant antibody (antibody, V domains shown)
VH: B6 VH with A54D
VL: B6 VL with Y33A
notes: Recombinantly expressed as a monoclonal antibody; also called L-Y33A

Each binder was assayed against human CGRP receptor (human CRLR / human RAMP1 heterodimer) on SK-N-MC (HTB-10) cells (human, UniProt Q16602 23-461; O60894 27-148) (assay: cell-based or functional assay).
Sequence of human CGRP receptor (human CRLR / human RAMP1 heterodimer) on SK-N-MC (HTB-10) cells (Q16602 23-461 limits assumed, chain 1 of 2): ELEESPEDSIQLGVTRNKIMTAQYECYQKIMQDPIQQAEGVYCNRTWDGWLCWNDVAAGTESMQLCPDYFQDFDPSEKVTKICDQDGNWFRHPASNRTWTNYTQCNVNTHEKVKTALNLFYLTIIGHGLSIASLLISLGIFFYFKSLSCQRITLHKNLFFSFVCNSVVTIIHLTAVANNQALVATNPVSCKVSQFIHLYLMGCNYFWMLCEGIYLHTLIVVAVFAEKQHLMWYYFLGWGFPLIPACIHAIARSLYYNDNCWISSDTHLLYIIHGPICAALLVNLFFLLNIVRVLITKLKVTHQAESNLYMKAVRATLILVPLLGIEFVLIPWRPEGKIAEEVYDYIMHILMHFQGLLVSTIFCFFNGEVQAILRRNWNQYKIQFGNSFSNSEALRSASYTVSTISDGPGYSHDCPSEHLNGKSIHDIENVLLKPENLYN
Sequence of human CGRP receptor (human CRLR / human RAMP1 heterodimer) on SK-N-MC (HTB-10) cells (O60894 27-148 limits assumed, chain 2 of 2): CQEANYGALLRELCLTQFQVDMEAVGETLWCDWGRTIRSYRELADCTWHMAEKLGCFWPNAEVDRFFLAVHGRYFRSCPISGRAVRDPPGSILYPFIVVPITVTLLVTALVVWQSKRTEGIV

| Fold-improvement over 4E4 Ab (human CGRP receptor IC50) [fold] | Human CGRP Receptor IC50 (nM), cell-based cAMP assay [nM] | Binder |
| --- | --- | --- |
| 1.3 | 0.45 | B1 |
| 0.9 | 0.63 | B2 |
| 1.5 | 0.38 | B3 |
| 0.9 | 0.6 | B4 |
| 1.7 | 0.33 | B5 |

These binders were tested against T1, human PAC1 receptor on SH-SY5Y … (assay: cell-based or functional assay).

| Fold-improvement over 29G4v22 Ab (human PAC1 receptor IC50) [fold] | Human PAC1 Receptor IC50 (nM), cell-based cAMP assay [nM] | Binder |
| --- | --- | --- |
| 4.8 | 0.86 | B1 |
| 4.4 | 0.88 | B2 |
| 6.6 | 0.62 | B3 |
| 3.1 | 1.34 | B4 |
| 7.2 | 0.57 | B5 |

What follows are binders tested against T2, soluble CGRP receptor (ECDs of human CRLR and human RAMP1) (human, UniProt Q16602 23-133; O60894 26-117) (assay: SPR (Biacore T200), antibody captured, soluble CGRP receptor as analyte).
T2 construct: complex treated with thrombin before crystallization; also called soluble human CGRP receptor; CRLR ECD/RAMP1 ECD heterodimer
T2 sequence (Q16602 23-133, chain 1 of 2): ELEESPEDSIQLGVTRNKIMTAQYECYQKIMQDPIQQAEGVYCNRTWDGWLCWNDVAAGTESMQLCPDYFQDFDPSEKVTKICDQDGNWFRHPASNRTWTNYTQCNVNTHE
T2 sequence (O60894 26-117, chain 2 of 2): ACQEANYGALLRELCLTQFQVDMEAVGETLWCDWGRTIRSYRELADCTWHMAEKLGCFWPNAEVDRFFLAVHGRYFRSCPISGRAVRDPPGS

| fold faster dissociation rate against wild-type 4E4 [fold] | Binder | binding result |
| --- | --- | --- |
| ~5 | B6 |  |
|  | B7 | no binding (tested: 1000 nM (highest analyte concentration)) |
|  | B8 | no binding (tested: 1000 nM (highest analyte concentration)) |
|  | B9 | no binding (tested: 1000 nM (highest analyte concentration)) |
|  | B10 | no binding (tested: 1000 nM (highest analyte concentration)) |

What follows are binders tested against T3, soluble CGRP receptor (extracellular domains of human CRLR and human RAMP1) (human, UniProt Q16602 23-133; O60894 26-117) (assay: SPR (Biacore T200), antibody captured by goat anti-human Fc, soluble CGRP receptor as analyte).
T3 construct: the tag and the thrombin site are not described; also called soluble human CGRP receptor; CGRP receptor ECD
T3 sequence (Q16602 23-133, chain 1 of 2): as the sequence (Q16602 23-133, chain 1 of 2) above
T3 sequence (O60894 26-117, chain 2 of 2): as the sequence (O60894 26-117, chain 2 of 2) above

| Binder | binding result |
| --- | --- |
| B11 | no binding (tested: soluble CGRP receptor up to 1000 nM) |
| B12 | no binding (tested: soluble CGRP receptor up to 1000 nM) |
| B13 | no binding (tested: soluble CGRP receptor up to 1000 nM) |
| B14 | no binding (tested: soluble CGRP receptor up to 1000 nM) |

The binders below were run against T3, soluble CGRP receptor (extracellular …) (assay: SPR (Biacore T200), antibody captured by goat anti-human Fc, soluble CGRP receptor as analyte, 1:1 model).

| Kd [nM] | koff [s⁻¹] | kon [M⁻¹ s⁻¹] | Binder |
| --- | --- | --- | --- |
| 180 | 0.0026 | 15000 | B15 |
| 28 | 0.00054 | 20000 | B16 |
| 33 | 0.0006 | 18000 | B17 |
| 29 | 0.00046 | 16000 | B18 |
| 43 | 0.00077 | 18000 | B19 |
| 11 | 0.00027 | 24000 | B20 |
